# Like-named read-outs stand apart in the source and are kept apart here. Bridges are numbered along the chain shown (N, C = ends). Where no end group is shown, it is not given here.
# Legend:
# [1] = tested on: untransfected CHO-K1 cells; test: cAMP assay in untransfected CHO-K1 cells; type: cell-based; conditions: vodo-C1 30 µM; CP55940 and 2-AG 10 µM and 1 µM, alone or with 10 μM vBCL1-4
# CB2R [2] = biological target: T1, CB2R (Homo sapiens, UniProt P34972); type: cell-based
# CB2R [3] = biological target: T1, CB2R; test: cell-based; type: cell-based; conditions: for decrease of efficacy of 2-AG to recruit β-arrestin-2 / decrease of efficacy of CP55940 to recruit β-arrestin-2: single point, peptide 10 μM; for decrease of efficacy of 2-AG to recruit β-arrestin-2: 2-AG 1 μM; for decrease of efficacy of CP55940 to recruit β-arrestin-2: CP55940 1 μM
# CB2R [4] = biological target: T1, CB2R; test: cAMP assay; type: cell-based; conditions: varying concentrations, inverse agonist control
# CB2R [5] = biological target: T1, CB2R; test: cAMP assay in the absence of forskolin; type: cell-based; conditions: 10 µM peptide with varying CP55940, no forskolin
# CB2R [6] = biological target: T1, CB2R; test: Radioligand displacement of [3H]-CP55940 at human CB2R membrane preparations; type: binding; conditions: peptide 100 nM and 10 μM; [3H]-CP55940 0.5 nM mixed with cold CP55940 4.5 nM
# T1 sequence (P34972 whole entry): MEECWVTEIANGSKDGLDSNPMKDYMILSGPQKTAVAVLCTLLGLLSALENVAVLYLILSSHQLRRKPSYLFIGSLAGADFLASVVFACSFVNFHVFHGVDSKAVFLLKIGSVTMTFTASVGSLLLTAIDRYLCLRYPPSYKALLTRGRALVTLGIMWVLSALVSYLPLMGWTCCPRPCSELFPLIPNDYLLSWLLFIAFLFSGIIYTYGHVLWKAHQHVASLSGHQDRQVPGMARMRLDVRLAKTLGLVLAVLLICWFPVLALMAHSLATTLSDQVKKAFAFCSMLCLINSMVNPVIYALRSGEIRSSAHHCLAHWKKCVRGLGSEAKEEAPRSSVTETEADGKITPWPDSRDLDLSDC
Molecule,changes in cAMP levels in untransfected cells [1],EC50 fold shift relative to 2-AG (CB2R [2]; 10 μM peptide),"EC50 fold shift relative to WIN55,212-2 (CB2R [2]; 10 μM peptide)",decrease of efficacy of 2-AG to recruit β-arrestin-2 (CB2R [3]),decrease of efficacy of CP55940 to recruit β-arrestin-2 (CB2R [3]),other results
"CCCCC/C=C\C/C=C\C/C=C\C/C=C\CCCC(=O)OC(CO)CO [2-AG, 2-arachidonoylglycerol, reference compound]",no changes in cAMP levels,,,,,"EC50 (CB2R [2]; EC50 of agonist alone, agonist alone): 480 nM; EC50 (CB2R [3]): 600 nM"
CCCCCCC(C)(C)c1ccc([C@@H]2C[C@H](O)CC[C@H]2CCCO)c(O)c1 [CP55940],no changes in cAMP levels,,,,,
SR144528,,,,,,effect on basal levels of CB2R activity (CB2R [4]): reduced the basal levels of CB2R activity
"vBCL1: vodo-C1-inspired bicyclic loop peptide, loops 1 and 2, 10 residues, cyclized with 1,3,5-tris-(bromomethyl)-benzene (CGETCFTGKC; linker 1-5-10 via 1,3,5‑tris‑(bromomethyl)‑benzene (inferred))",,~6 fold,~6 fold,no or only minor (not significant) changes,no or only minor (not significant) changes,
"vBCL3: vodo-C1-inspired bicyclic loop peptide, loops 5 and 6, 15 residues, cyclized with 1,3,5-tris-(bromomethyl)-benzene (CEWPICTKNGDPLPC; linker 1-6-15 via 1,3,5‑tris‑(bromomethyl)‑benzene (inferred))",,~6 fold,~6 fold,no or only minor (not significant) changes,no or only minor (not significant) changes,"intrinsic inverse agonist activity (CB2R [5]): lacks intrinsic inverse agonist activity; decrease of the efficacy of CP55940 (CB2R [2]; 10 μM peptide): ~40%; effect on basal activity (WIN55,212-2 curve) (CB2R [2]; 10 μM peptide): reduced the basal activity; effect on basal response (CP55940 curve) (CB2R [2]; 10 μM peptide): reduction in basal response; binding to the receptor (two-point displacement) (CB2R [6]): did not bind to the receptor"

# — PMC11154713 (The Journal of Biological Chemistry, 2024)
